T1: human CTLA4 protein (human, UniProt P16410 37-162, limits assumed)
T1 construct: bought protein coated on the ELISA plate; also called human CTLA4 antigen
T1 sequence (looked up): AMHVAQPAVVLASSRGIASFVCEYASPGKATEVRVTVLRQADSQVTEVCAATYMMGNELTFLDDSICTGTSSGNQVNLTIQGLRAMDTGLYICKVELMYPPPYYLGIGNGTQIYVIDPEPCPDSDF


Assays:
human CD28 protein = target: T2, human CD28 protein (human, UniProt P10747 19-152); assay: ELISA, plate-coated human CD28; parameters: binding strength @ 100nM: reference not given here
T2 construct: bought protein coated on the ELISA plate; also called human CD28 antigen
T2 sequence (P10747 19-152 limits assumed): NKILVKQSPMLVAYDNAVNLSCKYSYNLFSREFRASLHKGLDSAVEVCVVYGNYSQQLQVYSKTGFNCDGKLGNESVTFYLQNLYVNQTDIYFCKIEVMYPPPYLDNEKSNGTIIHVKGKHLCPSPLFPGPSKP

human CTLA4 protein = target: T1, human CTLA4 protein; assay: ELISA, plate-coated human CTLA4

Binder	binding result (human CD28 protein)	binding result (human CTLA4 protein)	EC50 (human CD28 protein) [nM]	binding strength @ 100nM (human CD28 protein) [%]
Abs-254 (other, the paragraph that names the antibody is followed; also called CD80 IgV mutant I69W/A71E-sugemalimab fusion) heavy: VIHVTKEVKEVATLSCGHNVSVEELAQTRIYWQKEKKMVLTMMSGDMNIWPEYKNRTIFDITNNLSIVWLELRPSDEGTYECVVLKYEKDAFKREHLAEVTLSVKADGGGGSGGGGSGGGGSGGGGSGEVQLLESGGGLVQPGGSLRLSCAASGFTFSSYAMSWVRQAPGKGLEWVSGISGSGGFTYYADSVKGRFTISRDNSKNTLYLQMNSLRAEDTAVYYCAKPPRGYNYGPFDYWGQGTLVTVSSASTKGPSVFPLAPCSRSTSESTAALGCLVKDYFPEPVTVSWNSGALTSGVHTFPAVLQSSGLYSLSSVVTVPSSSLGTKTYTCNVDHKPSNTKVDKRVESKYGPPCPPCPAPEFLGGPSVFLFPPKPKDTLMISRTPEVTCVVVDVSQEDPEVQFNWYVDGVEVHNAKTKPREEQFNSTYRVVSVLAVLHQDWLNGKEYKCKVSNKGLPSSIEKTISKAKGQPREPQVYTLPPSQEEMTKNQVSLTCLVKGFYPSDIAVAWESNGQPENNYKTTPPVLDSDGSFFLYSRLTVDKSRWQEGNVFSCSVMHEALHAHYTQKSLSLSLGK light: SYVLTQPPSVSVAPGQTARITCGGNNIGSKSVHWYQQKPGQAPVLVVYDDSDRPSGIPERFSGSNSGNTATLTISRVEAGDEADYYCQVWDSSSDHVVFGGGTKLTVLGQPKAAPSVTLFPPSSEELQANKATLVCLISDFYPGAVTVAWKADSSPVKAGVETTTPSKQSNNKYAASSYLSLTPEQWKSHRSYSCQVTHEGSTVEKTVAPTECS	no binding	no binding	–	–
Abs-255 (other, the paragraph that names the antibody is followed; also called CD80 IgV mutant H18W/A26M/A71E/L85N-sugemalimab fusion) heavy: VIHVTKEVKEVATLSCGWNVSVEELMQTRIYWQKEKKMVLTMMSGDMNIWPEYKNRTIFDITNNLSIVILELRPSDEGTYECVVNKYEKDAFKREHLAEVTLSVKADGGGGSGGGGSGGGGSGGGGSGEVQLLESGGGLVQPGGSLRLSCAASGFTFSSYAMSWVRQAPGKGLEWVSGISGSGGFTYYADSVKGRFTISRDNSKNTLYLQMNSLRAEDTAVYYCAKPPRGYNYGPFDYWGQGTLVTVSSASTKGPSVFPLAPCSRSTSESTAALGCLVKDYFPEPVTVSWNSGALTSGVHTFPAVLQSSGLYSLSSVVTVPSSSLGTKTYTCNVDHKPSNTKVDKRVESKYGPPCPPCPAPEFLGGPSVFLFPPKPKDTLMISRTPEVTCVVVDVSQEDPEVQFNWYVDGVEVHNAKTKPREEQFNSTYRVVSVLAVLHQDWLNGKEYKCKVSNKGLPSSIEKTISKAKGQPREPQVYTLPPSQEEMTKNQVSLTCLVKGFYPSDIAVAWESNGQPENNYKTTPPVLDSDGSFFLYSRLTVDKSRWQEGNVFSCSVMHEALHAHYTQKSLSLSLGK light: SYVLTQPPSVSVAPGQTARITCGGNNIGSKSVHWYQQKPGQAPVLVVYDDSDRPSGIPERFSGSNSGNTATLTISRVEAGDEADYYCQVWDSSSDHVVFGGGTKLTVLGQPKAAPSVTLFPPSSEELQANKATLVCLISDFYPGAVTVAWKADSSPVKAGVETTTPSKQSNNKYAASSYLSLTPEQWKSHRSYSCQVTHEGSTVEKTVAPTECS	no binding	no binding	–	–
Abs-258 (other, the paragraph that names the antibody is followed; also called CD80 IgV mutant H18W/A26C/A71E/L85D-sugemalimab fusion) heavy: VIHVTKEVKEVATLSCGWNVSVEELCQTRIYWQKEKKMVLTMMSGDMNIWPEYKNRTIFDITNNLSIVILELRPSDEGTYECVVDKYEKDAFKREHLAEVTLSVKADGGGGSGGGGSGGGGSGGGGSGEVQLLESGGGLVQPGGSLRLSCAASGFTFSSYAMSWVRQAPGKGLEWVSGISGSGGFTYYADSVKGRFTISRDNSKNTLYLQMNSLRAEDTAVYYCAKPPRGYNYGPFDYWGQGTLVTVSSASTKGPSVFPLAPCSRSTSESTAALGCLVKDYFPEPVTVSWNSGALTSGVHTFPAVLQSSGLYSLSSVVTVPSSSLGTKTYTCNVDHKPSNTKVDKRVESKYGPPCPPCPAPEFLGGPSVFLFPPKPKDTLMISRTPEVTCVVVDVSQEDPEVQFNWYVDGVEVHNAKTKPREEQFNSTYRVVSVLAVLHQDWLNGKEYKCKVSNKGLPSSIEKTISKAKGQPREPQVYTLPPSQEEMTKNQVSLTCLVKGFYPSDIAVAWESNGQPENNYKTTPPVLDSDGSFFLYSRLTVDKSRWQEGNVFSCSVMHEALHAHYTQKSLSLSLGK light: SYVLTQPPSVSVAPGQTARITCGGNNIGSKSVHWYQQKPGQAPVLVVYDDSDRPSGIPERFSGSNSGNTATLTISRVEAGDEADYYCQVWDSSSDHVVFGGGTKLTVLGQPKAAPSVTLFPPSSEELQANKATLVCLISDFYPGAVTVAWKADSSPVKAGVETTTPSKQSNNKYAASSYLSLTPEQWKSHRSYSCQVTHEGSTVEKTVAPTECS	no binding	no binding	–	–
Abs-263 (other, the paragraph that names the antibody is followed; also called CD80 IgV mutant I69L/A71E/V83L-sugemalimab fusion) heavy: VIHVTKEVKEVATLSCGHNVSVEELAQTRIYWQKEKKMVLTMMSGDMNIWPEYKNRTIFDITNNLSIVLLELRPSDEGTYECLVLKYEKDAFKREHLAEVTLSVKADGGGGSGGGGSGGGGSGGGGSGEVQLLESGGGLVQPGGSLRLSCAASGFTFSSYAMSWVRQAPGKGLEWVSGISGSGGFTYYADSVKGRFTISRDNSKNTLYLQMNSLRAEDTAVYYCAKPPRGYNYGPFDYWGQGTLVTVSSASTKGPSVFPLAPCSRSTSESTAALGCLVKDYFPEPVTVSWNSGALTSGVHTFPAVLQSSGLYSLSSVVTVPSSSLGTKTYTCNVDHKPSNTKVDKRVESKYGPPCPPCPAPEFLGGPSVFLFPPKPKDTLMISRTPEVTCVVVDVSQEDPEVQFNWYVDGVEVHNAKTKPREEQFNSTYRVVSVLAVLHQDWLNGKEYKCKVSNKGLPSSIEKTISKAKGQPREPQVYTLPPSQEEMTKNQVSLTCLVKGFYPSDIAVAWESNGQPENNYKTTPPVLDSDGSFFLYSRLTVDKSRWQEGNVFSCSVMHEALHAHYTQKSLSLSLGK light: SYVLTQPPSVSVAPGQTARITCGGNNIGSKSVHWYQQKPGQAPVLVVYDDSDRPSGIPERFSGSNSGNTATLTISRVEAGDEADYYCQVWDSSSDHVVFGGGTKLTVLGQPKAAPSVTLFPPSSEELQANKATLVCLISDFYPGAVTVAWKADSSPVKAGVETTTPSKQSNNKYAASSYLSLTPEQWKSHRSYSCQVTHEGSTVEKTVAPTECS	–	no binding	26.1	333

More lines, now with the values ahead:

binding result (human CD28 protein)	binding result (human CTLA4 protein)	EC50 (human CD28 protein) [nM]	binding strength @ 100nM (human CD28 protein) [%]	Binder
no binding	no binding	–	–	Abs-259 (other, the paragraph that names the antibody is followed; also called CD80 IgV mutant A26M/A71E/L85N-sugemalimab fusion) heavy: VIHVTKEVKEVATLSCGHNVSVEELMQTRIYWQKEKKMVLTMMSGDMNIWPEYKNRTIFDITNNLSIVILELRPSDEGTYECVVNKYEKDAFKREHLAEVTLSVKADGGGGSGGGGSGGGGSGGGGSGEVQLLESGGGLVQPGGSLRLSCAASGFTFSSYAMSWVRQAPGKGLEWVSGISGSGGFTYYADSVKGRFTISRDNSKNTLYLQMNSLRAEDTAVYYCAKPPRGYNYGPFDYWGQGTLVTVSSASTKGPSVFPLAPCSRSTSESTAALGCLVKDYFPEPVTVSWNSGALTSGVHTFPAVLQSSGLYSLSSVVTVPSSSLGTKTYTCNVDHKPSNTKVDKRVESKYGPPCPPCPAPEFLGGPSVFLFPPKPKDTLMISRTPEVTCVVVDVSQEDPEVQFNWYVDGVEVHNAKTKPREEQFNSTYRVVSVLAVLHQDWLNGKEYKCKVSNKGLPSSIEKTISKAKGQPREPQVYTLPPSQEEMTKNQVSLTCLVKGFYPSDIAVAWESNGQPENNYKTTPPVLDSDGSFFLYSRLTVDKSRWQEGNVFSCSVMHEALHAHYTQKSLSLSLGK light: SYVLTQPPSVSVAPGQTARITCGGNNIGSKSVHWYQQKPGQAPVLVVYDDSDRPSGIPERFSGSNSGNTATLTISRVEAGDEADYYCQVWDSSSDHVVFGGGTKLTVLGQPKAAPSVTLFPPSSEELQANKATLVCLISDFYPGAVTVAWKADSSPVKAGVETTTPSKQSNNKYAASSYLSLTPEQWKSHRSYSCQVTHEGSTVEKTVAPTECS
no binding	no binding	–	–	Abs-261 (other, the paragraph that names the antibody is followed; also called CD80 IgV mutant A26C/A71E/L85D-sugemalimab fusion) heavy: VIHVTKEVKEVATLSCGHNVSVEELCQTRIYWQKEKKMVLTMMSGDMNIWPEYKNRTIFDITNNLSIVILELRPSDEGTYECVVDKYEKDAFKREHLAEVTLSVKADGGGGSGGGGSGGGGSGGGGSGEVQLLESGGGLVQPGGSLRLSCAASGFTFSSYAMSWVRQAPGKGLEWVSGISGSGGFTYYADSVKGRFTISRDNSKNTLYLQMNSLRAEDTAVYYCAKPPRGYNYGPFDYWGQGTLVTVSSASTKGPSVFPLAPCSRSTSESTAALGCLVKDYFPEPVTVSWNSGALTSGVHTFPAVLQSSGLYSLSSVVTVPSSSLGTKTYTCNVDHKPSNTKVDKRVESKYGPPCPPCPAPEFLGGPSVFLFPPKPKDTLMISRTPEVTCVVVDVSQEDPEVQFNWYVDGVEVHNAKTKPREEQFNSTYRVVSVLAVLHQDWLNGKEYKCKVSNKGLPSSIEKTISKAKGQPREPQVYTLPPSQEEMTKNQVSLTCLVKGFYPSDIAVAWESNGQPENNYKTTPPVLDSDGSFFLYSRLTVDKSRWQEGNVFSCSVMHEALHAHYTQKSLSLSLGK light: SYVLTQPPSVSVAPGQTARITCGGNNIGSKSVHWYQQKPGQAPVLVVYDDSDRPSGIPERFSGSNSGNTATLTISRVEAGDEADYYCQVWDSSSDHVVFGGGTKLTVLGQPKAAPSVTLFPPSSEELQANKATLVCLISDFYPGAVTVAWKADSSPVKAGVETTTPSKQSNNKYAASSYLSLTPEQWKSHRSYSCQVTHEGSTVEKTVAPTECS
no binding	no binding	–	–	Abs-262 (other, the paragraph that names the antibody is followed; also called CD80 IgV mutant A26C/A71E/L85N-sugemalimab fusion) heavy: VIHVTKEVKEVATLSCGHNVSVEELCQTRIYWQKEKKMVLTMMSGDMNIWPEYKNRTIFDITNNLSIVILELRPSDEGTYECVVNKYEKDAFKREHLAEVTLSVKADGGGGSGGGGSGGGGSGGGGSGEVQLLESGGGLVQPGGSLRLSCAASGFTFSSYAMSWVRQAPGKGLEWVSGISGSGGFTYYADSVKGRFTISRDNSKNTLYLQMNSLRAEDTAVYYCAKPPRGYNYGPFDYWGQGTLVTVSSASTKGPSVFPLAPCSRSTSESTAALGCLVKDYFPEPVTVSWNSGALTSGVHTFPAVLQSSGLYSLSSVVTVPSSSLGTKTYTCNVDHKPSNTKVDKRVESKYGPPCPPCPAPEFLGGPSVFLFPPKPKDTLMISRTPEVTCVVVDVSQEDPEVQFNWYVDGVEVHNAKTKPREEQFNSTYRVVSVLAVLHQDWLNGKEYKCKVSNKGLPSSIEKTISKAKGQPREPQVYTLPPSQEEMTKNQVSLTCLVKGFYPSDIAVAWESNGQPENNYKTTPPVLDSDGSFFLYSRLTVDKSRWQEGNVFSCSVMHEALHAHYTQKSLSLSLGK light: SYVLTQPPSVSVAPGQTARITCGGNNIGSKSVHWYQQKPGQAPVLVVYDDSDRPSGIPERFSGSNSGNTATLTISRVEAGDEADYYCQVWDSSSDHVVFGGGTKLTVLGQPKAAPSVTLFPPSSEELQANKATLVCLISDFYPGAVTVAWKADSSPVKAGVETTTPSKQSNNKYAASSYLSLTPEQWKSHRSYSCQVTHEGSTVEKTVAPTECS
